Measurements as given in US6458355 (Genentech, dated 2002).

Target: T1, recombinant human IL-8, (ser-IL-8)72 (human, UniProt P10145 28-99)
T1 construct: mature; also called human wild type IL-8; wt IL-8
T1 sequence (looked up): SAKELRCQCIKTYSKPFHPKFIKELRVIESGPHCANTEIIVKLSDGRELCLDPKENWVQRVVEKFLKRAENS
Assay: competition of 125I-IL-8 binding to human neutrophils

B1: humanized 6G425 F(ab)-1 (Fab, V domains shown)
VH: EVQLVESGGGLVQPGGSLRLSCAASGYSFSSHYMHWVRQAPGKGLEWVGYIDPSNGETTYNQKFKGRFTISRDNSKNTLYLQMNSLRAEDTAVYYCARGDYRYNGDWFFDVWGQGT
VL: DIQMTQSPSSLSASVGDRVTITCRSSQSLVHGIGNTYLHWYQQKPGKAPKLLIYKVSNRFSGVPSRFSGSGSGTDFTLTISSLQPEDFATYYCSQSTHVPLTFGQGTKVEIKR
notes: Fab with human kappa subgroup I light and human IgG1 subgroup III heavy chain (pEMX1); CDR swap; also called version 1; V1
  fold reduction in binding affinity (against the chimeric F(ab)): 5.5 fold
